Test results published in patent US20240409647A1 (SINOMAB BIOSCIENCE, published 2024).

Tests used:
[1] = target: T1, human IL-17RB protein (recombinant, R&D systems) (human); test: ELISA, coated receptor; SM17 at 0.4 µg/mL; well 2
T1 construct: Bought protein; also called hIL17RB
T1 sequence (Q9NRM6 whole entry, looked up): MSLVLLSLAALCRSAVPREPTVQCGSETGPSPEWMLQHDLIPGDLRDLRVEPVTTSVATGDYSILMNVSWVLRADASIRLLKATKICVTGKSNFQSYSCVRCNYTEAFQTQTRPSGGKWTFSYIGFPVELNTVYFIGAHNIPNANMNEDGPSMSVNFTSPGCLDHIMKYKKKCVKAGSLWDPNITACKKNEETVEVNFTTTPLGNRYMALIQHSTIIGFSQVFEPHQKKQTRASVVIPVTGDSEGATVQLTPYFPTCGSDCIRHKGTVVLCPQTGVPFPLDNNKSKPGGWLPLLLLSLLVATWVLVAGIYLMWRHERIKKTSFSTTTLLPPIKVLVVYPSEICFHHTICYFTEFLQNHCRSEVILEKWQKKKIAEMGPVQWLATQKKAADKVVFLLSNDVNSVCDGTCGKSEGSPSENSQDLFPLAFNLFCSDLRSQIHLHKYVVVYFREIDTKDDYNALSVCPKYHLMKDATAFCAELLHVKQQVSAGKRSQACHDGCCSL

[2] = target: T2, human IL-17 receptor subunit A (human, UniProt Q96F46 33-320); test: ELISA, coated receptor; SM17 at 0.4 µg/mL; well 2
T2 construct: also called IL17RA; hIL17RA

[3] = target: T3, human IL-17 receptor subunit C (human, UniProt Q8NAC3-2 21-467, limits assumed); test: ELISA, coated receptor; SM17 at 0.4 µg/mL; well 2
T3 construct: also called IL17RC; hIL17RC
T3 sequence (looked up): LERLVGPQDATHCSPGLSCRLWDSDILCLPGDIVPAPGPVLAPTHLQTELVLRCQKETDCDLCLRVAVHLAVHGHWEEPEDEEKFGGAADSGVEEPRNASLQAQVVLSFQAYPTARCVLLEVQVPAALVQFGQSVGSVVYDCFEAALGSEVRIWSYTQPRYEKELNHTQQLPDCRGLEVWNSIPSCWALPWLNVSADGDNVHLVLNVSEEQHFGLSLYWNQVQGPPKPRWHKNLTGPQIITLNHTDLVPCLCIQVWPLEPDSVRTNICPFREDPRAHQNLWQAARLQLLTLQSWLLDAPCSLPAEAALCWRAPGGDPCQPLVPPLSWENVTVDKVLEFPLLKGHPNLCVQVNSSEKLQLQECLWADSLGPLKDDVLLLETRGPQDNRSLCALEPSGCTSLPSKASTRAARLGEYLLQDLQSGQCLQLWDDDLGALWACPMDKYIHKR

[4] = target: T4, human IL-17 receptor subunit D (human, UniProt Q8NFM7 28-299, limits assumed); test: ELISA, coated receptor; SM17 at 0.4 µg/mL; well 2
T4 construct: also called IL17RD; hIL 17RD
T4 sequence (looked up): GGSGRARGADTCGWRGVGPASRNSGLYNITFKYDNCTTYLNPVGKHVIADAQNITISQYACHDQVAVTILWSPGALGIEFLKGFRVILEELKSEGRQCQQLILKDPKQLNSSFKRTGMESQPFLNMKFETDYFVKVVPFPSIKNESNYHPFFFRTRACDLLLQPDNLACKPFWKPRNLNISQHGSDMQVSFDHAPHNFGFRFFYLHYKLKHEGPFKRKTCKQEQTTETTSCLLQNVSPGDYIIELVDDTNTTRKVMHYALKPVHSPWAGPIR

[5] = target: T5, human IL-17 receptor subunit E (human, UniProt Q8NFR9 24-454, limits assumed); test: ELISA, coated receptor; SM17 at 0.4 µg/mL; well 2
T5 construct: also called hIL17RE
T5 sequence (looked up): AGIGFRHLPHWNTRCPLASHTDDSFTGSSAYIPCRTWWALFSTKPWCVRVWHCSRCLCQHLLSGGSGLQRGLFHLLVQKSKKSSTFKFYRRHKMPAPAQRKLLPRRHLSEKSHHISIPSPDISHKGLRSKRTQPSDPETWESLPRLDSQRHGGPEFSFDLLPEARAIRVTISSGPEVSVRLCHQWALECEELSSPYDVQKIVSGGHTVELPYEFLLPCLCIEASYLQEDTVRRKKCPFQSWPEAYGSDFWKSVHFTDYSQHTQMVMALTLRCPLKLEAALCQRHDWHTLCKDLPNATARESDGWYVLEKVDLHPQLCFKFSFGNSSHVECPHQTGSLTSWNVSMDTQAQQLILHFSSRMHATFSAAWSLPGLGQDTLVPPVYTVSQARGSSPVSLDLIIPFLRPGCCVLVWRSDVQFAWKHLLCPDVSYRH

[6] = target: T1, human IL-17RB protein (recombinant, R&D …); test: ELISA, coated receptor; SM17 at 0.08 µg/mL; well 2
[7] = target: T2, human IL-17 receptor subunit A; test: ELISA, coated receptor; SM17 at 0.08 µg/mL; well 2
[8] = target: T3, human IL-17 receptor subunit C; test: ELISA, coated receptor; SM17 at 0.08 µg/mL; well 2
[9] = target: T4, human IL-17 receptor subunit D; test: ELISA, coated receptor; SM17 at 0.08 µg/mL; well 2
[10] = target: T5, human IL-17 receptor subunit E; test: ELISA, coated receptor; SM17 at 0.08 µg/mL; well 2
[11] = target: T3, human IL-17 receptor subunit C; test: ELISA, coated receptor; SM17 at 0.00064 µg/mL; well 1
[12] = target: T4, human IL-17 receptor subunit D; test: as above
[13] = target: T5, human IL-17 receptor subunit E; test: as above
human TSLP (R&D systems) = target: T6, human TSLP (R&D systems) (human, UniProt Q969D9 29-159); test: BLI (Octet RED96), binder captured via anti-human Fab CH1, TSLP in solution
T6 construct: also called thymic stromal lymphopoietin
Protocol: Biosensors immobilized with irrelevant antibody (SM03, anti-human CD22 chimeric IgG1 antibody, SinoMab BioScience Limited, 20 μg/mL) were used as control reference.

OD 450 nm Absorption [1]: 1.31 OD450
OD 450 nm Absorption [2]: 0.22 OD450
OD 450 nm Absorption [3]: 0.18 OD450
OD 450 nm Absorption [4]: 0.08 OD450
OD 450 nm Absorption [5]: 0.05 OD450
OD 450 nm Absorption [6]: 0.64 OD450
OD 450 nm Absorption [7]: 0.06 OD450
OD 450 nm Absorption [8]: -0.02 OD450
OD 450 nm Absorption [9]: 0.01 OD450
OD 450 nm Absorption [10]: 0 OD450
OD 450 nm Absorption [11]: 0.13 OD450
OD 450 nm Absorption [12]: 0.08 OD450
OD 450 nm Absorption [13]: 0.09 OD450
Kd (human TSLP (R&D systems)): 100 nM
koff (human TSLP (R&D systems)): 0.001 s⁻¹
B1: SM17 (antibody, human IgG4 S228P, kappa, V domains shown)
VH: QVQLVQSGAEVKKPGASVKVSCKASGYTFISYWMNWVRQAPGQGLEWMGRIDPYDSEIQYNQKFKDRVTMTRDTSISTAYMELSRLRSDDTAVYYCARSGGFDWFAYWGQGTLVTVSS
VL: DIQMTQSPSSLSASVGDRVTITCRASENINSNLAWYQQKPGKAPKLLLYDVTNLADGVPSRFSGSGSGTDYTLTISSLQPEDFATYYCQHFWGPPYTFGGGTKVEIKR
notes: other paragraphs and claim 15 call the same entries VH and VL; also called humanized anti-IL17RB monoclonal antibody
